The record followed here is patent US5912120A, “Cloning, expression and diagnosis of human cytochrome P450 2C19: the principal determinant of s-mephenytoin metabolism” (The United States of America as represented by the …, priority 1994, dated 1999).

Common to all, as to assay type: biochemical
A short description of series [1]: Mephenytoin 4'-hydroxylase assay, purified recombinant P450 2C in reconstituted system (Table IV). The settings on record: for stereospecificity of 4'-hydroxylation of mephenytoin: purified, reconstituted system (Table IV). Here is the method:
Recombinant yeast microsomes were prepared from a 10-12 l culture, and recombinant P450s were purified by aminooctylsepharose chromatography as described by Iwasaki et al., J. Biol. Chem. 226:3380-3382 (1991). The Emulgen was then removed from protein by adsorption of the protein to a 4 g hydroxylapatite column (Hypatite C, Clarkson Chemical Company, Williamsport, Pa.) equilibrated with 10 mM potassium phosphate buffer (pH 7.2), 20% glycerol, 0.1 mM EDTA, and 0.1 mM DTT and washing the column with the same buffer until the absorbance at 280 nm returned to zero. The P450 was then eluted with […], and dialyzed overnight against 100 mM potassium phosphate buffer (pH 7.4, 20% glycerol and 0.1 mM EDTA. Absolute and CO difference spectra of purified P450s were determined in the same buffer but containing 0.2% Emulgen and 0.5% cholate.
Mephenytoin 4'-hydroxylase activity was measured by a modification of the radiometric HPLC assay described by Shimada et al., J. Biol. Chem. 261:909-921 (1986), as described below. Purified or recombinant yeast microsomes (10-50 pmol) were preincubated with dilauroylphosphatidylcholine (15 μg per 50 pmol P450), P450 reductase (500 U per […] P450), and human cytochrome b5 (2:1 molar ratio when added). The reconstituted mixture was preincubated for 5 min at 37° C., and then placed on ice. A final concentration of 0.4 mM radiolabelled S- or R-mephenytoin (20.7 mCi/mM and 20.9 mCi/mMol) was added to 50 mM HEPES buffer (pH 7.4) containing 0.1 mM EDTA and 1.5 mM MgCl2 for recombinant 2C proteins. The mixture was then incubated at 37° with shaking for 3 min, and the reaction started with the addition of 2mM NADPH and terminated after 30 min with an equal volume of methanol. Cytochrome b5 was not included in all CYP2C18 reactions, since it had no effect or produced a slight inhibition on the activity of this CYP protein. Reaction volumes were generally 0.25 ml except when the volume of recombinant purified cytochrome or yeast microsomes was greater than 50 μl. In these cases, the volume was increased to 0.5 ml to limit the volume of glycerol from the purified preparation to <4% of the final volume.
At the end of the incubation period, the reactions were terminated with an equal volume of methanol. The incubation mixture was centrifuged at 10,000 g for 10 min and an aliquot assayed directly using HPLC without extraction. Samples with particularly low activity were concentrated by lyophilization and redissolved in a small volume of methanol:water (1:1) before assay. The HPLC system consisted of a reverse phase C18 (10 μm) Versapak, 300 mm×4.1 mm column (Altech Associates, Deerfield, Ill.) using an isocratic solvent consisting of methanol:water (45:55) with a flow rate was kept of 1 ml/min for 25 min. Detection of radioactive peaks was accomplished using an on-line Flow-One radiochemical detector (Radiomatic Instruments Co., Tampa, Fla. Detection of the unlabeled 4'-hydroxymephenytoin authentic standard was performed using an on-line multiwavelength UV detector at both 211 and 230 nm.
Recombinant P450s were purified from yeast microsomes and assays performe

Series [2] in a line: Mephenytoin 4'-hydroxylase assay, recombinant human CYP2C yeast microsomes (Table III).
Experimental: (§1) Purified or recombinant yeast microsomes (10-50 pmol) were preincubated with dilauroylphosphatidylcholine (15 μg per 50 pmol P450), P450 reductase (500 U per 50 mol P450), and human cytochrome b5 (2:1 molar ratio when added). The reconstituted mixture was preincubated for 5 min at 37° C., and then placed on ice. A final concentration of 0.4 mM radiolabelled S- or R-mephenytoin (20.7 mCi/mM and 20.9 mCi/mMol) was added to 50 mM HEPES buffer (pH 7.4) containing 0.1 mM EDTA and 1.5 mM MgCl2 for recombinant 2C proteins. The mixture was then incubated at 37° with shaking for 3 min, and the reaction started with the addition of 2mM NADPH and terminated after 30 min with an equal volume of methanol. […] Reaction volumes were generally 0.25 ml except when the volume of recombinant purified cytochrome or yeast microsomes was greater than 50 μl. In these cases, the volume was increased to 0.5 ml to limit the volume of glycerol from the purified preparation to <4% of the final volume.
Test in series [3]: as above
The note with it: recombinant yeast microsomes + P450 reductase, phospholipid, cytochrome b5 2:1; 0.4 mM substrate, HEPES pH 7.4, 37° C. 30 min; means ± SE.
Experimental: as §1

Series [4] is described as follows: Tolbutamide hydroxylase assay, recombinant human CYP2C yeast microsomes (Table V). The settings on record: 1 mg yeast microsomal protein + purified P450 reductase (1,000 units).
Experimental: Tolbutamide hydroxylase activity was measured according to Knodell et al., J. Pharmacol. Exper. […] Yeast microsomes (1 mg protein) were preincubated with 300 pmol hamster P450 reductase in 0.2 ml of the incubation buffer (below) for 3 min at 37° C. The reaction was then placed on ice and incubated in 0.2 ml of 50 mM HEPES buffer (pH 7.4) containing 1.5 mM MgCl2, 0.1 mM EDTA in a final volume of 1 ml and 1 mM sodium tolbutamide. The reaction was initiated with 0.5 mM NADPH. Human liver microsomes (0.22 mg protein) were incubated without reductase. Incubations with reconstituted recombinant P450s contained 50 pmol purified P450 enzyme, 150 pmol P450 reductase, and 15 μg dilauroylphosphatidyl-choline, and were performed in 100 mM potassium phosphate buffer (pH 7.4). Reactions were terminated after 60 min at 37° C. by the addition of 50 μl of 4N HCl, followed by extraction with 3 ml of water-saturated ethyl acetate. The ethyl acetate extracts were dried under nitrogen at 40° C., the residue resolubilized in 200 μl methanol, and 4-hydroxytolbutamide then assayed using HPLC by injecting 50 μl of the solubilized extract onto a μBONDAPAK C18 column (4.6×300 mm) using 0.05% phosphoric acid, pH 2.6: acetonitrile (6:4, v/v) as the mobile phase with a flow rate of 1 ml/min. The column eluate was monitored at 230 nm and rates of product formation were determined from standard curves prepared by adding varying amounts of 4-hydroxytolbutamide to incubations conducted without NADPH. […] Samples were analyzed in triplicate.
[5] abbreviates: purified P450, reconstituted system.

B1: 2C9: recombinant human cytochrome P450 2C9, allele not specified in the text (protein, UniProt P11712 1-490, looked up)
Cytochrome P450 2C9: MDSLVVLVLCLSCLLLLSLWRQSSGRGKLPPGPTPLPVIGNILQIGIKDISKSLTNLSKVYGPVFTLYFGLKPIVVLHGYEAVKEALIDLGEEFSGRGIFPLAERANRGFGIVFSNGKKWKEIRRFSLMTLRNFGMGKRSIEDRVQEEARCLVEELRKTKASPCDPTFILGCAPCNVICSIIFHKRFDYKDQQFLNLMEKLNENIKILSSPWIQICNNFSPIIDYFPGTHNKLLKNVAFMKSYILEKVKEHQESMDMNNPQDFIDCFLMKMEKEKHNQPSEFTIESLENTAVDLFGAGTETTSTTLRYALLLLLKHPEVTAKVQEEIERVIGRNRSPCMQDRSHMPYTDAVVHEVQRYIDLLPTSLPHAVTCDIKFRNYLIPKGTTILISLTSVLHDNKEFPNPEMFDPHHFLDEGGNFKKSKYFMPFSAGKRICVGEALAGMELFLFLTSILQNFNLKSLVDPKNLDTTPVVNGFASVPPFYQLCFIPV
On to B1, for which, in series [1] (S-mephenytoin 4'-hydroxylation), the “turnover number higher than the activity of 2C9 purified from human liver” value is recorded as ~ 100 times. In series [1], the “stereospecificity of 4'-hydroxylation of mephenytoin” value is “not stereospecific”. Besides, the “rate of 4'-hydroxylation of S-mephenytoin” value in series [2] (recombinant yeast microsomes) came to 0.02 nmol/min/nmol.

B2: 2C9 Purified from Human Liver: cytochrome P450 2C9 purified from human liver microsomes (protein, UniProt P11712 1-490, looked up)
Cytochrome P450 2C9: MDSLVVLVLCLSCLLLLSLWRQSSGRGKLPPGPTPLPVIGNILQIGIKDISKSLTNLSKVYGPVFTLYFGLKPIVVLHGYEAVKEALIDLGEEFSGRGIFPLAERANRGFGIVFSNGKKWKEIRRFSLMTLRNFGMGKRSIEDRVQEEARCLVEELRKTKASPCDPTFILGCAPCNVICSIIFHKRFDYKDQQFLNLMEKLNENIKILSSPWIQICNNFSPIIDYFPGTHNKLLKNVAFMKSYILEKVKEHQESMDMNNPQDFIDCFLMKMEKEKHNQPSEFTIESLENTAVDLFGAGTETTSTTLRYALLLLLKHPEVTAKVQEEIERVIGRNRSPCMQDRSHMPYTDAVVHEVQRYIDLLPTSLPHAVTCDIKFRNYLIPKGTTILISLTSVLHDNKEFPNPEMFDPHHFLDEGGNFKKSKYFMPFSAGKRICVGEALAGMELFLFLTSILQNFNLKSLVDPKNLDTTPVVNGFASVPPFYQLCFIPV
On to B2, for which the “R/S Ratio” value in series [1] (setting [5]) is reported as 1.6.

B3: 2C18-Thr^385 (29c): recombinant human P450 2C18 allelic variant, clone 29c (Thr at 385), in yeast microsomes; residue 2 not stated in Table III (protein, UniProt P33260 26-490, looked up)
Cytochrome P450 2C18: RGRLPSGPTPLPIIGNILQLDVKDMSKSLTNFSKVYGPVFTVYFGLKPIVVLHGYEAVKEALIDHGEEFSGRGSFPVAEKVNKGLGILFSNGKRWKEIRRFCLMTLRNFGMGKRSIEDRVQEEARCLVEELRKTNASPCDPTFILGCAPCNVICSVIFHDRFDYKDQRFLNLMEKFNENLRILSSPWIQVCNNFPALIDYLPGSHNKIAENFAYIKSYVLERIKEHQESLDMNSARDFIDCFLIKMEQEKHNQQSEFTVESLIATVTDMFGAGTETTSTTLRYGLLLLLKYPEVTAKVQEEIECVVGRNRSPCMQDRSHMPYTDAVVHEIQRYIDLLPTNLPHAVTCDVKFKNYLIPKGTTIITSLTSVLHNDKEFPNPEMFDPGHFLDKSGNFKKSDYFMPFSAGKRMCMGEGLARMELFLFLTTILQNFNLKSQVDPKDIDITPIANAFGRVPPLYQLCFIPV
As for B3, the “Mephenytoin 4'-Hydroxylase Activity R” value in series [3] stood at 0.054 ± 0.003 nmol/min/nmol P450. The “Mephenytoin 4'-Hydroxylase Activity S” value in series [2] (recombinant yeast microsomes + P450 reductase, phospholipid, cytochrome b5 2:1, 0.4 mM substrate, HEPES pH 7.4, 37° C. 30 min, means ± SE) amounted to 0.042 ± 0.004 nmol/min/nmol P450; in series [2] (recombinant yeast microsomes, no b5) it was 0.034 ± 0.008 nmol/min/nmol P450. In addition, the “R/S Ratio” value in series [2] (recombinant yeast microsomes, with cytochrome b5) is 1.3.

B4: 2C18: recombinant human cytochrome P450 2C18, variant not specified in the text (protein, UniProt P33260 26-490, looked up)
Cytochrome P450 2C18: RGRLPSGPTPLPIIGNILQLDVKDMSKSLTNFSKVYGPVFTVYFGLKPIVVLHGYEAVKEALIDHGEEFSGRGSFPVAEKVNKGLGILFSNGKRWKEIRRFCLMTLRNFGMGKRSIEDRVQEEARCLVEELRKTNASPCDPTFILGCAPCNVICSVIFHDRFDYKDQRFLNLMEKFNENLRILSSPWIQVCNNFPALIDYLPGSHNKIAENFAYIKSYVLERIKEHQESLDMNSARDFIDCFLIKMEQEKHNQQSEFTVESLIATVTDMFGAGTETTSTTLRYGLLLLLKYPEVTAKVQEEIECVVGRNRSPCMQDRSHMPYTDAVVHEIQRYIDLLPTNLPHAVTCDVKFKNYLIPKGTTIITSLTSVLHNDKEFPNPEMFDPGHFLDKSGNFKKSDYFMPFSAGKRMCMGEGLARMELFLFLTTILQNFNLKSQVDPKDIDITPIANAFGRVPPLYQLCFIPV
As to B4, the “stereospecificity of 4'-hydroxylation of mephenytoin” value in series [1] is reported as “stereoselective for the R-enantiomer”.

B5: 2C18-Asp^2 Thr^385 (29c-1a): recombinant human P450 2C18, clone 29c with correct Asp^2, Thr^385 (protein, UniProt P33260 26-490, looked up)
Cytochrome P450 2C18: RGRLPSGPTPLPIIGNILQLDVKDMSKSLTNFSKVYGPVFTVYFGLKPIVVLHGYEAVKEALIDHGEEFSGRGSFPVAEKVNKGLGILFSNGKRWKEIRRFCLMTLRNFGMGKRSIEDRVQEEARCLVEELRKTNASPCDPTFILGCAPCNVICSVIFHDRFDYKDQRFLNLMEKFNENLRILSSPWIQVCNNFPALIDYLPGSHNKIAENFAYIKSYVLERIKEHQESLDMNSARDFIDCFLIKMEQEKHNQQSEFTVESLIATVTDMFGAGTETTSTTLRYGLLLLLKYPEVTAKVQEEIECVVGRNRSPCMQDRSHMPYTDAVVHEIQRYIDLLPTNLPHAVTCDVKFKNYLIPKGTTIITSLTSVLHNDKEFPNPEMFDPGHFLDKSGNFKKSDYFMPFSAGKRMCMGEGLARMELFLFLTTILQNFNLKSQVDPKDIDITPIANAFGRVPPLYQLCFIPV
Consider B5, for which, in series [1] (setting [5]), the “R/S Ratio” value is 1.3. In addition, the “Mephenytoin 4'-Hydroxylase Activity S” value in series [1] (purified P450, reconstituted system, triplicate, means ± SE, blank not subtracted) is reported as 0.116 ± 0.010 nmol/min/nmol P450. The “Mephenytoin 4'-Hydroxylase Activity R” value in series [1] (triplicate, means ± SE, blank not subtracted) is listed as 0.147 ± 0.025 nmol/min/nmol P450. Moreover, in series [4] (adjusted for P450 content), the “Tolbutamide Hydroxylase Activity (nmol/min/nmol P450)” value worked out at 0.19 ± 0.02 nmol/min/nmol P450. In addition, the “Tolbutamide Hydroxylase Activity (nmol/min/mg protein)” value in series [4] (means ±SE) was 9.3 ± 0.7 nmol/min/mg protein.

B6: 2C8 Purified from Human Liver: cytochrome P450 2C8 purified from human liver microsomes (protein, UniProt P10632 1-490, looked up)
Cytochrome P450 2C8: MEPFVVLVLCLSFMLLFSLWRQSCRRRKLPPGPTPLPIIGNMLQIDVKDICKSFTNFSKVYGPVFTVYFGMNPIVVFHGYEAVKEALIDNGEEFSGRGNSPISQRITKGLGIISSNGKRWKEIRRFSLTTLRNFGMGKRSIEDRVQEEAHCLVEELRKTKASPCDPTFILGCAPCNVICSVVFQKRFDYKDQNFLTLMKRFNENFRILNSPWIQVCNNFPLLIDCFPGTHNKVLKNVALTRSYIREKVKEHQASLDVNNPRDFIDCFLIKMEQEKDNQKSEFNIENLVGTVADLFVAGTETTSTTLRYGLLLLLKHPEVTAKVQEEIDHVIGRHRSPCMQDRSHMPYTDAVVHEIQRYSDLVPTGVPHAVTTDTKFRNYLIPKGTTIMALLTSVLHDDKEFPNPNIFDPGHFLDKNGNFKKSDYFMPFSAGKRICAGEGLARMELFLFLTTILQNFNLKSVDDLKNLNTTAVTKGIVSLPPSYQICFIPV
In the case of B6, the “R/S Ratio” value in series [1] (setting [5]) was 1.6.
